The test deals with T1, reconstituted SET1C (FLAG-Set1 and the seven other untagged subunits) (S. cerevisiae, UniProt P38827 1-1080; P39706 1-426; P36104 1-329; P38123 1-315; P43132 1-505; Q03323 …).
T1 construct: Set1, S. cerevisiae, full length (Set1 FL); Swd1, S. cerevisiae, untagged subunit; Swd2, S. cerevisiae, untagged subunit; Swd3, S. cerevisiae, untagged subunit; Bre2, S. cerevisiae, untagged subunit; Sdc1, S. cerevisiae, untagged subunit; Spp1, S. cerevisiae, untagged subunit; Shg1, S. cerevisiae, untagged subunit; The seven subunits are named in the introduction; also called full-length SET1C; …
The experiment in a line: pull-down; GST-tagged Snf2 fragments (250 nM) on glutathione-Sepharose 4B with SET1C or C762SET1C (25 nM), BSA 0.2 mg/ml; 20 mM Tris-Cl pH 7.9, 150 mM NaCl, 0.2 mM EDTA, 20% glycerol, 0.1% NP-40; 4°C, 3 hr; immunoblotting. The conditions noted are these: both partners purified. Background: Immunoblotting shows a protein as a band on a membrane.

Data on one molecule can be found in publication PMC13581290, “A systematic interactome of Saccharomyces cerevisiae SET1C expands its functional landscape and identifies candidate regulatory connections” (eLife, 2026).

B1: GST-Snf2C-AT-hook (domain or fragment, S. cerevisiae, UniProt P22082 1384-1547, looked up)
chain: ARKQRTKKEDKSEAIDGNGEIKGENIDADNDGPRINNISAEDRADTDLAMNDDDFLSKKRKAGRPRGRPKKVKLEGSENSEPPALESSPVTGDNSPSEDFMDIPKPRTAGKTSVKSARTSTRGRGRGRGRGRGRGRGRGRPPKARNGLDYVRTPAAATSPIDIR
notes: Snf2, S. cerevisiae, AT-hook region 1384-1547; also called Snf2-AT-hook; GST-Snf2-AT-hook; source: E. coli BL21, purified
B1: the binding result was “binds”.
